Experimental data reported in patent US11819556B2, “Stabilized compositions of radionuclides and uses thereof” (RayzeBio, Inc., priority 2021, dated 2023).
Marks after values point to notes of the source that are not given here.

Assays:
Assay type in all cases: physicochemical
[1] = DTPA concentration optimization: radio-TLC purity; details: DTPA 1.0 mg/ml, 20 μCi/ml, 100 mM sodium ascorbate pH 5.80, 25° C.
Protocol: (§1) The mixture was kept at room temperature (25° C.). At different time points, radioactive components of the formulated dose were measured by radio-TLC as described in the table below: […]

[2] = Dextran ratio optimization: radio-TLC purity; details: 25 μCi/ml
Protocol: as §1

[3] = EGCg concentration: radio-TLC purity; details: 25 μCi/ml, 100 mM sodium ascorbate pH 5.80, 0.05 mg/ml DTPA, saline, 25° C.
Protocol: as §1

Substance: (2,2′,2″-(10-(2-4(R)-1-(((4R,7S,10S,13R,16S,19R)-13-((1H-indol-3-yl)methyl)-10-(4-aminobutyl)-4-(((1S,2R)-1-carboxy-2-hydroxypropyl)carbamoyl)-16-(4-hydroxybenzyl)-7-((R)-1-hydroxyethyl)-6,9,12,15,18-pentaoxo-1,2-dithia-5,8,11,14,17-pentaazacycloicosan-19-yl)amino)-1-oxo-3-phenylpropan-2-yl)amino)-2-oxoethyl)-1,4,7,10-tetraazacyclododecane-1,4,7-triyl)triacetate; actinium-225(3+)) [[^225Ac]Ac-DOTA-TATE]
- Percentage of ^225Ac present in [^225Ac]Ac-DOTA-TATE ([1]; 48 hours): 96.14%
- Percentage of ^225Ac present in [^225Ac]Ac-DOTA-TATE ([1]; 72 hours): 94.14%
- Percentage of ^225Ac present in [^225Ac]Ac-DOTA-TATE ([2]; Dextran 0% w/w, 0 hour, 100 mM sodium ascorbate, 0.05 mg/ml DTPA, saline, pH 5.80, 25° C.): 99.90%
- Percentage of ^225Ac present in [^225Ac]Ac-DOTA-TATE ([2]; Dextran 0% w/w, 24 hours, 100 mM sodium ascorbate, 0.05 mg/ml DTPA, saline, pH 5.80, 25° C.): 99.42%
- Percentage of ^225Ac present in [^225Ac]Ac-DOTA-TATE ([2]; Dextran 0% w/w, 48 hours, 100 mM sodium ascorbate, 0.05 mg/ml DTPA, saline, pH 5.80, 25° C.): 98.73%
- Percentage of ^225Ac present in [^225Ac]Ac-DOTA-TATE ([2]; Dextran 0% w/w, 72 hours, 100 mM sodium ascorbate, 0.05 mg/ml DTPA, saline, pH 5.80, 25° C.): 97.77%
- Percentage of ^225Ac present in [^225Ac]Ac-DOTA-TATE ([2]; Dextran 0% w/w, 96 hours, 100 mM sodium ascorbate, 0.05 mg/ml DTPA, saline, pH 5.80, 25° C.): 97.13%
- Percentage of ^225Ac present in [^225Ac]Ac-DOTA-TATE ([2]; Dextran 0% w/w, 120 hours, non-homogeneous sampling, 100 mM sodium ascorbate, 0.05 mg/ml DTPA, saline, pH 5.80, 25° C.): 98.09* %
- Percentage of ^225Ac present in [^225Ac]Ac-DOTA-TATE ([2]; Dextran 0% w/w, 144 hours, 100 mM sodium ascorbate, 0.05 mg/ml DTPA, saline, pH 5.80, 25° C.): 94.64%
- Percentage of ^225Ac present in [^225Ac]Ac-DOTA-TATE ([2]; Dextran 3% w/w, 0 hour, 100 mM sodium ascorbate, 0.05 mg/ml DTPA, saline, pH 5.80, 25° C.): 99.86%
- Percentage of ^225Ac present in [^225Ac]Ac-DOTA-TATE ([2]; Dextran 3% w/w, 24 hours, 100 mM sodium ascorbate, 0.05 mg/ml DTPA, saline, pH 5.80, 25° C.): 98.62%
- Percentage of ^225Ac present in [^225Ac]Ac-DOTA-TATE ([2]; Dextran 3% w/w, 48 hours, 100 mM sodium ascorbate, 0.05 mg/ml DTPA, saline, pH 5.80, 25° C.): 98.48%
- Percentage of ^225Ac present in [^225Ac]Ac-DOTA-TATE ([2]; Dextran 3% w/w, 72 hours, 100 mM sodium ascorbate, 0.05 mg/ml DTPA, saline, pH 5.80, 25° C.): 97.91%
- Percentage of ^225Ac present in [^225Ac]Ac-DOTA-TATE ([2]; Dextran 3% w/w, 96 hours, 100 mM sodium ascorbate, 0.05 mg/ml DTPA, saline, pH 5.80, 25° C.): 96.48%
- Percentage of ^225Ac present in [^225Ac]Ac-DOTA-TATE ([2]; Dextran 3% w/w, 120 hours, 100 mM sodium ascorbate, 0.05 mg/ml DTPA, saline, pH 5.80, 25° C.): 96.67%
- Percentage of ^225Ac present in [^225Ac]Ac-DOTA-TATE ([2]; Dextran 3% w/w, 144 hours, 100 mM sodium ascorbate, 0.05 mg/ml DTPA, saline, pH 5.80, 25° C.): 95.77%
- Percentage of ^225Ac present in [^225Ac]Ac-DOTA-TATE ([2]; Dextran 6% w/w, 0 hour, 100 mM sodium ascorbate, 0.05 mg/ml DTPA, saline, pH 5.80, 25° C.): 100%
- Percentage of ^225Ac present in [^225Ac]Ac-DOTA-TATE ([2]; Dextran 6% w/w, 24 hours, 100 mM sodium ascorbate, 0.05 mg/ml DTPA, saline, pH 5.80, 25° C.): 99.08%
- Percentage of ^225Ac present in [^225Ac]Ac-DOTA-TATE ([2]; Dextran 6% w/w, 48 hours, 100 mM sodium ascorbate, 0.05 mg/ml DTPA, saline, pH 5.80, 25° C.): 98.83%
- Percentage of ^225Ac present in [^225Ac]Ac-DOTA-TATE ([2]; Dextran 6% w/w, 72 hours, 100 mM sodium ascorbate, 0.05 mg/ml DTPA, saline, pH 5.80, 25° C.): 98.29%
- Percentage of ^225Ac present in [^225Ac]Ac-DOTA-TATE ([2]; Dextran 6% w/w, 96 hours, 100 mM sodium ascorbate, 0.05 mg/ml DTPA, saline, pH 5.80, 25° C.): 96.99%
- Percentage of ^225Ac present in [^225Ac]Ac-DOTA-TATE ([2]; Dextran 6% w/w, 120 hours, 100 mM sodium ascorbate, 0.05 mg/ml DTPA, saline, pH 5.80, 25° C.): 97.00%
- Percentage of ^225Ac present in [^225Ac]Ac-DOTA-TATE ([2]; Dextran 6% w/w, 144 hours, 100 mM sodium ascorbate, 0.05 mg/ml DTPA, saline, pH 5.80, 25° C.): 96.41%
- Percentage of ^225Ac present in [^225Ac]Ac-DOTA-TATE ([2]; Dextran 10% w/w, no L-ascorbate, 0 hour, 25° C.): 100%
- Percentage of ^225Ac present in [^225Ac]Ac-DOTA-TATE ([2]; Dextran 10% w/w, no L-ascorbate, 24 hours, 25° C.): 95.38%
- Percentage of ^225Ac present in [^225Ac]Ac-DOTA-TATE ([2]; Dextran 10% w/w, no L-ascorbate, 48 hours, 25° C.): 93.36%
- Percentage of ^225Ac present in [^225Ac]Ac-DOTA-TATE ([2]; Dextran 10% w/w, no L-ascorbate, 72 hours, 25° C.): 89.11%
- Percentage of ^225Ac present in [^225Ac]Ac-DOTA-TATE ([2]; Dextran 10% w/w, no L-ascorbate, 96 hours, 25° C.): 87.20%
- Percentage of ^225Ac present in [^225Ac]Ac-DOTA-TATE ([2]; Dextran 10% w/w, 0 hour, 100 mM sodium ascorbate, 0.05 mg/ml DTPA, saline, pH 5.80, 25° C.): 99.67%
- Percentage of ^225Ac present in [^225Ac]Ac-DOTA-TATE ([2]; Dextran 10% w/w, 24 hours, 100 mM sodium ascorbate, 0.05 mg/ml DTPA, saline, pH 5.80, 25° C.): 99.02%
- Percentage of ^225Ac present in [^225Ac]Ac-DOTA-TATE ([2]; Dextran 10% w/w, 48 hours, 100 mM sodium ascorbate, 0.05 mg/ml DTPA, saline, pH 5.80, 25° C.): 98.75%
- Percentage of ^225Ac present in [^225Ac]Ac-DOTA-TATE ([2]; Dextran 10% w/w, 72 hours, 100 mM sodium ascorbate, 0.05 mg/ml DTPA, saline, pH 5.80, 25° C.): 97.83%
- Percentage of ^225Ac present in [^225Ac]Ac-DOTA-TATE ([2]; Dextran 10% w/w, 96 hours, 100 mM sodium ascorbate, 0.05 mg/ml DTPA, saline, pH 5.80, 25° C.): 96.42%
- Percentage of ^225Ac present in [^225Ac]Ac-DOTA-TATE ([2]; Dextran 10% w/w, 120 hours, 100 mM sodium ascorbate, 0.05 mg/ml DTPA, saline, pH 5.80, 25° C.): 96.58%
- Percentage of ^225Ac present in [^225Ac]Ac-DOTA-TATE ([2]; Dextran 10% w/w, 144 hours, 100 mM sodium ascorbate, 0.05 mg/ml DTPA, saline, pH 5.80, 25° C.): 95.37%
- Percentage of ^225Ac present in [^225Ac]Ac-DOTA-TATE ([3]; EGCg 0 mg/ml, 0 hour): 99.90%
- Percentage of ^225Ac present in [^225Ac]Ac-DOTA-TATE ([3]; EGCg 0 mg/ml, 24 hours): 99.42%
- Percentage of ^225Ac present in [^225Ac]Ac-DOTA-TATE ([3]; EGCg 0 mg/ml, 48 hours): 98.73%
- Percentage of ^225Ac present in [^225Ac]Ac-DOTA-TATE ([3]; EGCg 0 mg/ml, 72 hours): 97.77%
- Percentage of ^225Ac present in [^225Ac]Ac-DOTA-TATE ([3]; EGCg 0 mg/ml, 96 hours): 97.13%
- Percentage of ^225Ac present in [^225Ac]Ac-DOTA-TATE ([3]; EGCg 0 mg/ml, 120 hours, non-homogeneous sampling): 98.09* %
- Percentage of ^225Ac present in [^225Ac]Ac-DOTA-TATE ([3]; EGCg 0 mg/ml, 144 hours): 94.64%
- Percentage of ^225Ac present in [^225Ac]Ac-DOTA-TATE ([3]; EGCg 0.5 mg/ml, 0 hour): 99.61%
- Percentage of ^225Ac present in [^225Ac]Ac-DOTA-TATE ([3]; EGCg 0.5 mg/ml, 24 hours): 98.92%
- Percentage of ^225Ac present in [^225Ac]Ac-DOTA-TATE ([3]; EGCg 0.5 mg/ml, 48 hours): 98.48%
- Percentage of ^225Ac present in [^225Ac]Ac-DOTA-TATE ([3]; EGCg 0.5 mg/ml, 72 hours): 97.97%
- Percentage of ^225Ac present in [^225Ac]Ac-DOTA-TATE ([3]; EGCg 0.5 mg/ml, 96 hours): 96.44%
- Percentage of ^225Ac present in [^225Ac]Ac-DOTA-TATE ([3]; EGCg 0.5 mg/ml, 120 hours): 95.65%
- Percentage of ^225Ac present in [^225Ac]Ac-DOTA-TATE ([3]; EGCg 0.5 mg/ml, 144 hours): 93.04%
- Percentage of ^225Ac present in [^225Ac]Ac-DOTA-TATE ([3]; EGCg 1 mg/ml, 0 hour): 99.76%
- Percentage of ^225Ac present in [^225Ac]Ac-DOTA-TATE ([3]; EGCg 1 mg/ml, 24 hours): 99.14%
- Percentage of ^225Ac present in [^225Ac]Ac-DOTA-TATE ([3]; EGCg 1 mg/ml, 48 hours): 98.83%
- Percentage of ^225Ac present in [^225Ac]Ac-DOTA-TATE ([3]; EGCg 1 mg/ml, 72 hours): 98.04%
- Percentage of ^225Ac present in [^225Ac]Ac-DOTA-TATE ([3]; EGCg 1 mg/ml, 96 hours): 97.15%
- Percentage of ^225Ac present in [^225Ac]Ac-DOTA-TATE ([3]; EGCg 1 mg/ml, 120 hours): 94.82%
- Percentage of ^225Ac present in [^225Ac]Ac-DOTA-TATE ([3]; EGCg 1 mg/ml, 144 hours): 95.65%
- Percentage of ^225Ac present in [^225Ac]Ac-DOTA-TATE ([3]; EGCg 3 mg/ml, 0 hour): 99.81%
- Percentage of ^225Ac present in [^225Ac]Ac-DOTA-TATE ([3]; EGCg 3 mg/ml, 24 hours): 98.57%
- Percentage of ^225Ac present in [^225Ac]Ac-DOTA-TATE ([3]; EGCg 3 mg/ml, 48 hours): 98.00%
- Percentage of ^225Ac present in [^225Ac]Ac-DOTA-TATE ([3]; EGCg 3 mg/ml, 72 hours): 96.55%
- Percentage of ^225Ac present in [^225Ac]Ac-DOTA-TATE ([3]; EGCg 3 mg/ml, 96 hours): 96.42%
- Percentage of ^225Ac present in [^225Ac]Ac-DOTA-TATE ([3]; EGCg 3 mg/ml, 120 hours): 96.05%
- Percentage of ^225Ac present in [^225Ac]Ac-DOTA-TATE ([3]; EGCg 3 mg/ml, 144 hours): 90.71%
